Residue numbers refer to the chain shown, from its start.
T1: rat GIP receptor (rat, UniProt P43219 19-455)
T1 sequence (looked up): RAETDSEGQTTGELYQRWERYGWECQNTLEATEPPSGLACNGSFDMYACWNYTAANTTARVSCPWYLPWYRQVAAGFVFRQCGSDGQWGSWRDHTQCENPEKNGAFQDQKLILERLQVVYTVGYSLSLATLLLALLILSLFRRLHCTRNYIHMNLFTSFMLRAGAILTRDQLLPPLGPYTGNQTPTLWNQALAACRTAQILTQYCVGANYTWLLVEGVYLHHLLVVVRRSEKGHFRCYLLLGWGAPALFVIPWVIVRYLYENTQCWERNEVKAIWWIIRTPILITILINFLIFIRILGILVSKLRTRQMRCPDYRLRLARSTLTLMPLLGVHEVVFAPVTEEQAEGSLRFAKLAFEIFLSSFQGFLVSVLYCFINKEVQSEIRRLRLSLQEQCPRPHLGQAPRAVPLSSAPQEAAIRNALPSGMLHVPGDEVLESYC

T2: rat GLP-1 receptor (rat, UniProt P32301 22-463)
T2 sequence (looked up): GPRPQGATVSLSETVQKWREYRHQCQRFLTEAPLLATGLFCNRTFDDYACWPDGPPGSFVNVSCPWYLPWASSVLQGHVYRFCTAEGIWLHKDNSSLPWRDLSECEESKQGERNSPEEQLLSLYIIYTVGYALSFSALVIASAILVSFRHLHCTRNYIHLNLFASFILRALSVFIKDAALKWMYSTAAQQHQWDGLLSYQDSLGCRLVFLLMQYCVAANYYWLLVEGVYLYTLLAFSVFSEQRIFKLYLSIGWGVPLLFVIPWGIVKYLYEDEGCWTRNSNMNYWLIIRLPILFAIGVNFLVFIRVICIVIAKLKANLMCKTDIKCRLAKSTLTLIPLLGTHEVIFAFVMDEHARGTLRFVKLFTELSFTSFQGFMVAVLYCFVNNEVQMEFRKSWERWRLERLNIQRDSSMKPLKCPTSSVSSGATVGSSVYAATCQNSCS

T3: mouse GLP-1 receptor (mouse, UniProt O35659 22-463)
T3 sequence (looked up): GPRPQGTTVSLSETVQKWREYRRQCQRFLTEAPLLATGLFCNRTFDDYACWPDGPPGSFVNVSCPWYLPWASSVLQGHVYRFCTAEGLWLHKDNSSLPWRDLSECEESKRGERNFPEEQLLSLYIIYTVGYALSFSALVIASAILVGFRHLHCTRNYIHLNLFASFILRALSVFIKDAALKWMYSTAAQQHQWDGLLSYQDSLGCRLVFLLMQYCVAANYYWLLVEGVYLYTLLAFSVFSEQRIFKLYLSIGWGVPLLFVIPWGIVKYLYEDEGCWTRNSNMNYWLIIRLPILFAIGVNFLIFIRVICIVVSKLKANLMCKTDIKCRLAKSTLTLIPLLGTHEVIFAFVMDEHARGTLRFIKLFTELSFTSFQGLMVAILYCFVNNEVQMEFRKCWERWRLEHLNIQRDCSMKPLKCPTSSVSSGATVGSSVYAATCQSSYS

T4: human GIP receptor (human, UniProt P48546 22-466)
T4 sequence (looked up): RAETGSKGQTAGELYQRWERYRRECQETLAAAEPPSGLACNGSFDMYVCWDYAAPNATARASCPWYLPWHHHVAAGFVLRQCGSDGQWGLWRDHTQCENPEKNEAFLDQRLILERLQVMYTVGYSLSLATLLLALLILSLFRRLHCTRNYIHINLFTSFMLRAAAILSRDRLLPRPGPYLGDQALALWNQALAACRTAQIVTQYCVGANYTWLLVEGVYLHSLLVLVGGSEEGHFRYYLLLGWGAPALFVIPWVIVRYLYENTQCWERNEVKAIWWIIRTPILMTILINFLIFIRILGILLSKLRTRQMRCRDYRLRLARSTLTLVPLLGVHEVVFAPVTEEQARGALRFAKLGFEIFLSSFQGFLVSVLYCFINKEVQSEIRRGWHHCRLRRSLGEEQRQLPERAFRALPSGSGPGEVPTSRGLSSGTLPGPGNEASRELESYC

T5: mouse GIP receptor (mouse, UniProt Q0P543 19-460)
T5 sequence (looked up): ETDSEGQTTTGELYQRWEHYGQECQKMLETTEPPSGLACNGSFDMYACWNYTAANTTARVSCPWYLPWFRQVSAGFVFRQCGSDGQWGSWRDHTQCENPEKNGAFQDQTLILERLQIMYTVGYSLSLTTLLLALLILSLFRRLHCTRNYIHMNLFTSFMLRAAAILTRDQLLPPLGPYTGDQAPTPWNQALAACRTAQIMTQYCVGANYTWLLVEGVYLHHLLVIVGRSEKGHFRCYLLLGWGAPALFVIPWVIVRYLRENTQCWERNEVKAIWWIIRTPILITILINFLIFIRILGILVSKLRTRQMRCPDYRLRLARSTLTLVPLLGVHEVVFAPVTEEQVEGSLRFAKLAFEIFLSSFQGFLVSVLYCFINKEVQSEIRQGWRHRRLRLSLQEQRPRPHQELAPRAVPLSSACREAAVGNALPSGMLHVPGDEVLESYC

B1: IP403 (Fc fusion)
chain: YSEGTHTSDLRILLEEEAVRLFIEKLLAGGGSGGGGSGGGGSGGGGSGGGGSGGGGSGGGGSGGGGSACPPC
B2: IP371 (Fc fusion)
chain: YSEGMHTSDLSKLLEEEAVRLFIEWLLAGGGGGGGSGGGGSGGGGSGGGGSACPPC
B3: IP372 (Fc fusion)
chain: B2 chain with M5T, H6F, L10Y, K12I, L13Y, E15D
B4: IP357 (Fc fusion)
chain: YSEGTFTSDFSKLLEEEAVRLFIEFLLAGGGGGGSGGGGSGGGGSGGGGSATHTCPPC
B5: IP374 (Fc fusion)
chain: B4 chain with D9L, F10Y, F25W
B6: IP400 (Fc fusion)
chain: B4 chain with F6H, F10L, F25W
B7: IP361 (Fc fusion)
chain: B4 chain with F10Y, S11R, K12I, L14K, F25W
B8: IP362 (Fc fusion)
chain: B4 chain with F10Y, S11M, K12M, L14K, F25W
B9: IP382 (Fc fusion)
chain: B4 chain with D9L, F10Y, F25Y
B10: IP358 (Fc fusion)
chain: B4 chain with F25W
B11: IP384 (Fc fusion)
chain: B4 chain with F10Y, F25W, A28K
B12: IP363 (Fc fusion)
chain: B4 chain with F10Y, S11R, K12M, L14K, F25W
B13: IP360 (Fc fusion)
chain: B4 chain with F10Y, S11R, K12I, F25W
B14: IP379 (Fc fusion)
chain: B4 chain with F6H, F25W
B15: IP370 (Fc fusion)
chain: B4 chain with D9L, F10Y, L14K, F25W
B16: IP298 (Fc fusion)
chain: YSEGTFTSDVSSYLERQAIDEFIAWLLKGGAAAGGSGSTASSGSGSATGGGGAATHTCPPC
B17: IP304 (Fc fusion)
chain: B16 chain with D20E
B18: IP390 (Fc fusion)
chain: YSEGTFTSDYSKLLEEEAVRLFIEWLVKGPGGGGGSGGGGSGGGGSGGGGSGGGGSACPPC

biological target: T1, rat GIP receptor; assay: cell-based or functional assay

Binder	cAMP EC50 [nM]
B1	0.02
B2	0.21
B3	27
B4	0.067
B5	0.41
B6	0.087
B7	0.038
B8	0.083
B9	0.92
B10	0.049
B11	0.043
B12	0.045
B13	0.033
B14	0.41
B15	0.13
B16	7.5
B17	4.6
B18	0.23

biological target: human GLP-1 receptor (human, UniProt P43220 24-463); assay: cell-based or functional assay

Binder	cAMP EC50 [nM]
B1	960
B2	0.48
B3	0.71
B4	0.27
B5	1.4
B6	0.29
B7	3.4
B8	1.7
B9	1.5
B10	0.24
B11	0.091
B12	0.98
B13	0.31
B14	0.84
B15	0.62
B16	0.18
B17	0.16
B18	0.13

biological target: T2, rat GLP-1 receptor; assay: cell-based or functional assay

Binder	cAMP EC50 [nM]
B1	73
B2	1.1
B3	2.9
B4	0.13
B5	0.89
B6	0.19
B7	18
B8	1.1
B9	0.68
B10	0.15
B11	0.024
B12	1.4
B13	0.15
B14	1.5
B15	0.35
B16	0.015
B17	0.024
B18	0.024

biological target: T3, mouse GLP-1 receptor; assay: cell-based or functional assay

Binder	cAMP EC50 [nM]
B1	> 1740
B2	8.5
B3	33
B4	1.1
B5	19
B6	31
B7	170
B8	11
B9	16
B10	1.1
B11	0.99
B12	11
B13	1.2
B14	44
B15	13
B16	0.36
B17	0.69
B18	2

biological target: human glucagon receptor (human, UniProt P47871 26-477); assay: cell-based or functional assay

Binder	cAMP EC50 [nM]
B1	960
B2	> 6560
B3	> 3880
B4	110
B5	> 2090
B6	1300
B7	> 6200
B8	> 4960
B9	120
B10	140
B11	26
B12	560
B13	63
B14	> 13200
B15	> 9490
B16	> 13100
B17	2600
B18	> 218

biological target: T4, human GIP receptor; assay: cell-based or functional assay

Binder	cAMP EC50 [nM]	cAMP EC50, hGIPr (C3) line [nM]
B1	16	
B2	0.011	
B3	0.05	
B4	0.014	
B5	0.2	
B6	0.002	
B7	0.082	
B8	0.061	
B9	0.19	
B10	0.0094	
B11	0.0062	
B12	0.056	
B13	0.016	2.5
B14	0.0038	
B15	0.19	
B16	0.14	
B17	0.1	
B18	0.0088	

biological target: T5, mouse GIP receptor; assay: cell-based or functional assay

Binder	cAMP EC50 [nM]
B1	21
B2	280
B3	450
B4	16
B5	1.9
B6	380
B7	0.19
B8	1.1
B9	6.5
B10	12
B11	4.1
B12	0.31
B13	0.36
B14	150
B15	0.48
B16	80
B17	16
B18	3.6
